Test results from patent US20130195869A1 (SEKISUI CHEMICAL, published 2013).
Where a chain is given by its changes, count along the chain named.

T1: human CCR7 expressed on CHO-K1 cells (human CCR7 gene-introduced stable expression cell) (human, UniProt P32248 25-378)
T1 sequence: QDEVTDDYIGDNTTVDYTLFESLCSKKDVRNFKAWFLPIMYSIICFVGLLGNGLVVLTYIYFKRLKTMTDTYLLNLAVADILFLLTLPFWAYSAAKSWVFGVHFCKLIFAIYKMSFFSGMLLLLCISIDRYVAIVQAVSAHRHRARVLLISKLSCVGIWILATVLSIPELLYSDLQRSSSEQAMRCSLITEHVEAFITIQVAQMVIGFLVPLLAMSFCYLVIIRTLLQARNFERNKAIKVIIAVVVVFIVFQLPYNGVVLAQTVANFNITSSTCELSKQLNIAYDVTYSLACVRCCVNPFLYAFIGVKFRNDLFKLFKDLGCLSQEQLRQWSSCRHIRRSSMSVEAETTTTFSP

T2: human native CCR7 on peripheral blood mononuclear cells of a healthy person (human, UniProt P32248 25-378)
T2 construct: whole, on cells; Endogenous receptor on primary cells of a donor; kept apart from the recombinant receptor on CHO-K1 cells; also called CCR7 on PBMC
T2 sequence (looked up): T1 sequence

B1: anti-human CCR7 monoclonal antibody R7-47 (hybridoma FERM BP-11376) (antibody, IgG1, V domains shown)
VH: EVQLQQSGPDLVKPGTSVKISCKASGYKFTDFNMDWVRQRHGKSLEWIGDVNPQNGEIFYNQKFRGKATLTVVKSSSTTYLELRSLTSEDTAVYFCTRLEFDYTGSNGFAYWGQGTLVTVSA
VL: DILMTQTPLSLPVSLGDQASISCRSSQTLVHRNGNTYLEWYLQKPGQSPKLLIYKVSNRFSGVPDRFSGRGSGTDFTLKISRVEAEDQGIYYCFQGSHDPWTFGGGTK
notes: Mouse monoclonal antibody from hybridoma
B2: anti-human CCR7 monoclonal antibody R7-02 (hybridoma FERM BP-11404) (antibody, IgG2a, V domains shown)
VH: QVQLQQSGAELERPGASVKLSCTASGFNIRDDYVHWVKQRPEQGLEWIGRIDPANGNTKYGPKFQAKATLTADTSSNTAYLQLGSLTSEDTAVYYCTRSFYDYDLFVPWGQGTLVTVSA
VL: DAVVTQESALTTSPGETVTLTCRSSTGAVTKNNFANWVQEKPDHLFTGLIGGNNIRAPGVPARFSGSLIGDKAALSITGAQTEDEAIYFCALWYSNHWVFGGGTK
notes: as for B1
B3: anti-human CCR7 monoclonal antibody R7-05 (hybridoma FERM BP-11371) (antibody, IgG2b, V domains shown)
VH: EVQLQQSGAELVRPGASVKLSCTASGFNIKDDYIHWVKQRPEQGLDWIGRVDPADGNTKYAPNFHDKATVTADTSSNTAYLQLSSLTSEDTAVYYCARSFYDYDLFASWGQGTLVTVSA
VL: B2 VL with K31T, N32S, G51S, G52S, I55K
notes: as for B1
B4: anti-human CCR7 monoclonal antibody R7-09 (hybridoma FERM BP-11372) (antibody, IgG2a, V domains shown)
VH: B3 VH with A9T, E42D, D46E, V51I, D55N, N63K, H65Q, V70I, A72S, T116S
VL: B2 VL with E16G, T19I, K31T, N32S, T47S, G51S, I55K, I87M, S95N
notes: as for B1
B5: anti-human CCR7 monoclonal antibody R7-11 (hybridoma FERM BP-11373) (antibody, IgG1, V domains shown)
VH: EVQLQQSGPDLVMPGASVRISCKASGYSFTAYYMHWVKQSHGLSLEWIGRVNPNNGGTSYNRKFKDKAILTVDRSSSTAFMELRSLTSEDSAVYYCARSESDHFYAMDSWGQGNSVSVSS
VL: DIVMTQTPLSLPVSLGDQVFISCRSSQSLVHSNGNTYLCWFLQKPGQSPKLLIYRVSNRFSGVPDRFSGSGSGTDFTLKISRVEAEDLGVYFCFQGSHVPHTFGSGTK
notes: as for B1
B6: anti-human CCR7 monoclonal antibody R7-18 (hybridoma FERM BP-11374) (antibody, IgG1, V domains shown)
VH: EVQLQQSGPDLVKPGASVKISCKASGYSFTGYYMHWVKQSHGKSLEWIGRVNPNNGGTSYNKKFKVKAILTVDRSSSTAYMEFRSLTLEDSAVYYCARSESNNFYAMDYWGQGKSVTVSS
VL: B5 VL with V3L, F20S, F41Y
notes: as for B1
B7: anti-human CCR7 monoclonal antibody R7-25 (hybridoma FERM BP-11375) (antibody, IgG1, V domains shown)
VH: EVMVVESGPGLMKPSQSLSLTCAVTGYSITSGYDWHWIRHFPGNILEWMGYINYSGSTNYKPSLKSRISITLDTSKNHFFLKLSSVTTEDTATYYCARGSYYSYEFAYWGQGTLVTVSA
VL: DIVMSQSPSSLAVSVGEKVTMSCKSSQRLLYYSTQKNYLAWYQQKPGQSPKLLIFWASTRESGVPNRFTGSGSGTDFTLTINSVKAEDLAVYYCQQYYTYPTFGGGTK
notes: as for B1
B8: anti-human CCR7 monoclonal antibody R7-01 (hybridoma FERM BP-11369) (antibody, IgG1, V domains shown)
VH: EVQLQQSGPELVKPGTSVKMSCKGSGYTFTDYYINWVRQSHGKSLEWIGRVNPGNGGTSYNQRFKGKATLTVDKFLSTAFMQLNSLTSEDSAVYFCARTGTYYNYDRGGFAYWGHGTLVTVSA
VL: DVLLTQSPVSLPVSLGDQASISCRCSQNIVHINGNTYLEWFLQKPGQSPKLLIYKVSNRFSGVPDRFSGSGSGTDFTLKIRRVEAEDLGVYYCFQGSHVPHTFGSGTK
notes: Mouse monoclonal antibody purified from hybridoma supernatant on protein G

Experiments:
[1] = target: human CCR7 expressed on CHO-K1 cells (human CCR7 gene-introduced stable expression cell) (human) (UniProt P32248); assay: flow cytometry, 10 µg/mL antibody on hCCR7 gene-introduced CHO-K1 cells, PE anti-mouse IgG
[2] = target: T1, human CCR7 expressed on CHO-K1 cells …; assay: cell-based or functional assay
[3] = target: T2, human native CCR7 on peripheral blood …; assay: flow cytometry, 0.5 µg antibody on 3×10^5 human PBMC, FITC anti-mouse IgG
Description: From peripheral blood of a healthy person, mononuclear cells (PBMC) were isolated using Lymphoprep (Axis-Shield) according to a routine method. The isolated PBMC were suspended in a phosphate buffered saline (PBS) solution containing 1 mg/mL human gamma-globulin (Jackson Immuno Research Laboratories), and blocked by incubation at room temperature for 30 minutes. The PBMC (3×10⁵ cells) after blocking were incubated together with each anti-human CCR7 antibody (0.5 μg) or isotype control antibody (0.5 μg) at 4° C. for one hour. Thereafter, PBMC were washed three times with a washing buffer (PBS solution containing 0.1% fetal bovine serum). Then, a fluorescein isothiocyanate (FITC)-labeled anti-mouse IgG antibody (Beckman Coulter) was added as secondary antibody, and incubated at 4° C. for 1 hour. PBMC were washed again three times with the washing buffer, and then analyzed by using a flow cytometer (Beckman Coulter).

[4] = target: T1, human CCR7 expressed on CHO-K1 cells …; assay: flow cytometry, 10 µg/mL antibody on hCCR7 gene-introduced CHO-K1 cells, PE anti-mouse IgG
Description: A 10 μg/mL solution of an anti-human CCR7 monoclonal antibody or mouse control IgG (Thermo, negative control) in PBS was prepared (hereinafter, referred to as “antibody solution”). After washing hCCR7 gene-introduced cells with PBS, the antibody solution was incubated together with the cells. Further, the cells were washed with PBS, and added with a phycoerythrin-labeled anti-mouse IgG antibody (Beckman Coulter) as a secondary antibody. Then interaction between the cells, and the anti-human CCR7 antibody or the mouse control IgG was analyzed by using a flow cytometer FACScalibur (Becton, Dickinson). FIG. 9 is a histogram showing an analytical result of interaction between hCCR7 gene-introduced cells, and mouse control IgG. FIG. 10 is a histogram showing an analytical result of interaction between a hCCR7 gene-introduced cell, and anti-human CCR7 antibody R7-47. […] In FIGS. 9 and 10, the vertical axis represents the number of cells, and the horizontal axis represents fluorescence intensity originating from phycoerythrin (PE). Of the two areas (M1, M2), the cell belonging to M2 (right area) indicates the cells that binds to the antibody. In Table 2, a percentage of specifically binding cells is represented by M2/(M1+M2).

Molecule | Percentage of specifically binding cells (M2/(M1 + M2)) [1] | 50% inhibition concentration (IC50) of the intracellular Ca^2+ rise caused by 1×10^-7 M CCL21 [2] | Percentage of specifically binding cells [3] | Percentage of specifically binding cells (M2/(M1 + M2)) [4]
mouse control IgG (Thermo, negative control) (antibody) | 0.7% | – | – | –
B1 | – | 0.0074 µM | 49.3% | 99.9%
B2 | – | 0.046 µM | 44.6% | 100%
B3 | – | 0.094 µM | 37.3% | 100%
B4 | – | 0.032 µM | 32.9% | 100%
B5 | – | 0.016 µM | 25.5% | 100%
B6 | – | 0.011 µM | 40.5% | 100%
B7 | – | 0.022 µM | 47% | 100%
B8 | – | 0.34 µM | 10.8% | 99.8%
